Measurements published in article doi:10.1101/2025.05.20.655083.

Molecular target: BSB PyV-LTA;mNLSn peptide (Black Sea Bass polyomavirus)
Experiment: fluorescence polarisation

“mouse importin α2 ΔIBB (from UniProt P52293 70-529) (domain or fragment)” was tested, and the fold decrease of binding affinity against BSB PyV-LTA;NLS was 10 times.
